Experimental data as given in patent US20140087995A1 (published 2014).
Numbered stars: 1 amine (or outer) side, 2 acyl side, 3 side chain; on linkers, the order of the positions; unused ones are H or OH. Bridge positions count the residues as written; N and C are the ends. Side chains are listed from the residue outwards. Ends that are not written are not given here. * marks the point of attachment. C20 diacid = O=C(O)CCCCCCCCCCCCCCCCCCC(=O)*; γGlu = O=C(O)[C@H](CCC(=O)[*:2])N[*:1]

T1: human calcitonin receptor (human, UniProt P30988 25-474)
T1 sequence (looked up): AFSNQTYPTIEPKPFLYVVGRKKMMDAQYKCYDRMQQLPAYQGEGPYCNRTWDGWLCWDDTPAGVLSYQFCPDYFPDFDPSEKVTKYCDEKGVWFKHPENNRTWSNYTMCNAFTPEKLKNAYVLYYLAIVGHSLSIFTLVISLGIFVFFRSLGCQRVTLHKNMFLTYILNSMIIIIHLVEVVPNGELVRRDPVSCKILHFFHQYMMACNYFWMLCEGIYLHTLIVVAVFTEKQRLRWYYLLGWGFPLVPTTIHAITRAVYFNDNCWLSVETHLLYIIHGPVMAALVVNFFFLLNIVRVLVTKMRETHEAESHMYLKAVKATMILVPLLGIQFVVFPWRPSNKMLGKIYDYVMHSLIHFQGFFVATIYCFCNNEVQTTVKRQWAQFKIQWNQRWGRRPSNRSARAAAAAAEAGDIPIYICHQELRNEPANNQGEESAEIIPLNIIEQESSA

B1: N^ε1-[(4S)-4-carboxy-4-[[(4S)-4-carboxy-4-(19-carboxynonadecanoylamino)butanoyl]amino]butanoyl]-[Glu14,Arg17,Pro21,Pro27,His34,Glu35]-h-amylin (peptide)
peptide: K([γGlu-γGlu-C20 diacid])CNTATCATQRLAEFLRHSSPNFGAIPSSTNVGHETY-NH2
modifications: disulfide 2-7; N-terminus assumed
SMILES: CC[C@H](C)[C@H](NC(=O)[C@H](C)NC(=O)CNC(=O)[C@H](Cc1ccccc1)NC(=O)[C@H](CC(N)=O)NC(=O)[C@@H]1CCCN1C(=O)[C@H](CO)NC(=O)[C@H](CO)NC(=O)[C@H](Cc1c[nH]cn1)NC(=O)[C@H](CCCNC(=N)N)NC(=O)[C@H](CC(C)C)NC(=O)[C@H](Cc1ccccc1)NC(=O)[C@H](CCC(=O)O)NC(=O)[C@H](C)NC(=O)[C@H](CC(C)C)NC(=O)[C@H](CCCNC(=N)N)NC(=O)[C@H](CCC(N)=O)NC(=O)[C@@H](NC(=O)[C@H](C)NC(=O)[C@@H]1CSSC[C@H](NC(=O)[C@@H](N)CCCCNC(=O)CC[C@H](NC(=O)CC[C@H](NC(=O)CCCCCCCCCCCCCCCCCCC(=O)O)C(=O)O)C(=O)O)C(=O)N[C@@H](CC(N)=O)C(=O)N[C@@H]([C@@H](C)O)C(=O)N[C@@H](C)C(=O)N[C@@H]([C@@H](C)O)C(=O)N1)[C@@H](C)O)C(=O)N1CCC[C@H]1C(=O)N[C@@H](CO)C(=O)N[C@@H](CO)C(=O)N[C@H](C(=O)N[C@@H](CC(N)=O)C(=O)N[C@H](C(=O)NCC(=O)N[C@@H](Cc1c[nH]cn1)C(=O)N[C@@H](CCC(=O)O)C(=O)N[C@H](C(=O)N[C@@H](Cc1ccc(O)cc1)C(N)=O)[C@@H](C)O)C(C)C)[C@@H](C)O
notes: synthetic peptide amide
B2: N^ε1-[(4S)-4-carboxy-4-[[(4S)-4-carboxy-4-(19-carboxynonadecanoylamino)butanoyl]amino]butanoyl]-[Glu14,Arg17,Pro21,Pro27,Pro34,Arg35]-h-amylin (peptide)
peptide: K([γGlu-γGlu-C20 diacid])CNTATCATQRLAEFLRHSSPNFGAIPSSTNVGPRTY-NH2
modifications: disulfide 2-7; N-terminus assumed
SMILES: CC[C@H](C)[C@H](NC(=O)[C@H](C)NC(=O)CNC(=O)[C@H](Cc1ccccc1)NC(=O)[C@H](CC(N)=O)NC(=O)[C@@H]1CCCN1C(=O)[C@H](CO)NC(=O)[C@H](CO)NC(=O)[C@H](Cc1c[nH]cn1)NC(=O)[C@H](CCCNC(=N)N)NC(=O)[C@H](CC(C)C)NC(=O)[C@H](Cc1ccccc1)NC(=O)[C@H](CCC(=O)O)NC(=O)[C@H](C)NC(=O)[C@H](CC(C)C)NC(=O)[C@H](CCCNC(=N)N)NC(=O)[C@H](CCC(N)=O)NC(=O)[C@@H](NC(=O)[C@H](C)NC(=O)[C@@H]1CSSC[C@H](NC(=O)[C@@H](N)CCCCNC(=O)CC[C@H](NC(=O)CC[C@H](NC(=O)CCCCCCCCCCCCCCCCCCC(=O)O)C(=O)O)C(=O)O)C(=O)N[C@@H](CC(N)=O)C(=O)N[C@@H]([C@@H](C)O)C(=O)N[C@@H](C)C(=O)N[C@@H]([C@@H](C)O)C(=O)N1)[C@@H](C)O)C(=O)N1CCC[C@H]1C(=O)N[C@@H](CO)C(=O)N[C@@H](CO)C(=O)N[C@H](C(=O)N[C@@H](CC(N)=O)C(=O)N[C@H](C(=O)NCC(=O)N1CCC[C@H]1C(=O)N[C@@H](CCCNC(=N)N)C(=O)N[C@H](C(=O)N[C@@H](Cc1ccc(O)cc1)C(N)=O)[C@@H](C)O)C(C)C)[C@@H](C)O
notes: synthetic peptide amide; also called compound 110
B3: N^ε1-[(4S)-4-carboxy-4-[[(4S)-4-carboxy-4-(19-carboxynonadecanoylamino)butanoyl]amino]butanoyl]-[Glu14,Arg17,Pro23,Pro34,Glu35]-h-amylin (peptide)
peptide: K([γGlu-γGlu-C20 diacid])CNTATCATQRLAEFLRHSSNNPGAILSSTNVGPETY-NH2
modifications: disulfide 2-7; N-terminus assumed
SMILES: CC[C@H](C)[C@H](NC(=O)[C@H](C)NC(=O)CNC(=O)[C@@H]1CCCN1C(=O)[C@H](CC(N)=O)NC(=O)[C@H](CC(N)=O)NC(=O)[C@H](CO)NC(=O)[C@H](CO)NC(=O)[C@H](Cc1c[nH]cn1)NC(=O)[C@H](CCCNC(=N)N)NC(=O)[C@H](CC(C)C)NC(=O)[C@H](Cc1ccccc1)NC(=O)[C@H](CCC(=O)O)NC(=O)[C@H](C)NC(=O)[C@H](CC(C)C)NC(=O)[C@H](CCCNC(=N)N)NC(=O)[C@H](CCC(N)=O)NC(=O)[C@@H](NC(=O)[C@H](C)NC(=O)[C@@H]1CSSC[C@H](NC(=O)[C@@H](N)CCCCNC(=O)CC[C@H](NC(=O)CC[C@H](NC(=O)CCCCCCCCCCCCCCCCCCC(=O)O)C(=O)O)C(=O)O)C(=O)N[C@@H](CC(N)=O)C(=O)N[C@@H]([C@@H](C)O)C(=O)N[C@@H](C)C(=O)N[C@@H]([C@@H](C)O)C(=O)N1)[C@@H](C)O)C(=O)N[C@@H](CC(C)C)C(=O)N[C@@H](CO)C(=O)N[C@@H](CO)C(=O)N[C@H](C(=O)N[C@@H](CC(N)=O)C(=O)N[C@H](C(=O)NCC(=O)N1CCC[C@H]1C(=O)N[C@@H](CCC(=O)O)C(=O)N[C@H](C(=O)N[C@@H](Cc1ccc(O)cc1)C(N)=O)[C@@H](C)O)C(C)C)[C@@H](C)O
notes: synthetic peptide amide
B4: N^ε1-[(4S)-4-carboxy-4-[[(4S)-4-carboxy-4-(19-carboxynonadecanoylamino)butanoyl]amino]butanoyl]-[Glu14,Arg17,Pro21,Pro27,Pro34,Phe37]-h-amylin (peptide)
peptide: K([γGlu-γGlu-C20 diacid])CNTATCATQRLAEFLRHSSPNFGAIPSSTNVGPNTF-NH2
modifications: disulfide 2-7; N-terminus assumed
SMILES: CC[C@H](C)[C@H](NC(=O)[C@H](C)NC(=O)CNC(=O)[C@H](Cc1ccccc1)NC(=O)[C@H](CC(N)=O)NC(=O)[C@@H]1CCCN1C(=O)[C@H](CO)NC(=O)[C@H](CO)NC(=O)[C@H](Cc1c[nH]cn1)NC(=O)[C@H](CCCNC(=N)N)NC(=O)[C@H](CC(C)C)NC(=O)[C@H](Cc1ccccc1)NC(=O)[C@H](CCC(=O)O)NC(=O)[C@H](C)NC(=O)[C@H](CC(C)C)NC(=O)[C@H](CCCNC(=N)N)NC(=O)[C@H](CCC(N)=O)NC(=O)[C@@H](NC(=O)[C@H](C)NC(=O)[C@@H]1CSSC[C@H](NC(=O)[C@@H](N)CCCCNC(=O)CC[C@H](NC(=O)CC[C@H](NC(=O)CCCCCCCCCCCCCCCCCCC(=O)O)C(=O)O)C(=O)O)C(=O)N[C@@H](CC(N)=O)C(=O)N[C@@H]([C@@H](C)O)C(=O)N[C@@H](C)C(=O)N[C@@H]([C@@H](C)O)C(=O)N1)[C@@H](C)O)C(=O)N1CCC[C@H]1C(=O)N[C@@H](CO)C(=O)N[C@@H](CO)C(=O)N[C@H](C(=O)N[C@@H](CC(N)=O)C(=O)N[C@H](C(=O)NCC(=O)N1CCC[C@H]1C(=O)N[C@@H](CC(N)=O)C(=O)N[C@H](C(=O)N[C@@H](Cc1ccccc1)C(N)=O)[C@@H](C)O)C(C)C)[C@@H](C)O
notes: synthetic peptide amide

Biological target: T1, human calcitonin receptor
Assay: cell-based or functional assay

**Q.** B1 was tested. Which “hCTR funct. EC50 (pM)” value did it give?
**A.** 7050 pM

**Q.** For K([γGlu-γGlu-C20 diacid])CNTATCATQRLAEFLRHSSPNFGAILSSTPVGPETY-NH2 (disulfide 2-7, synthetic peptide amide), which “hCTR funct. EC50 (pM)” value is on record?
**A.** 1280 pM

**Q.** With B2 as the binder, how does the “hCTR funct. EC50 (pM)” value read?
**A.** 8160 pM

**Q.** With B3 as the binder, how does the “hCTR funct. EC50 (pM)” value read?
**A.** 89600 pM

**Q.** Which “hCTR funct. EC50 (pM)” value does the source give for B4 here?
**A.** 2140 pM

**Q.** How did the “hCTR funct. EC50 (pM)” value turn out when K([γGlu-γGlu-C20 diacid])CNTATCATQRLAEFLRHSSPNFGAIPSSTNVGPHTY-NH2 (disulfide 2-7 (inferred), synthetic peptide amide) was run?
**A.** 2830 pM
